Target: T1, RS1 (retinoschisin), human, recombinant, secreted from Sf21 insect cells (human), O15537
T1 chain: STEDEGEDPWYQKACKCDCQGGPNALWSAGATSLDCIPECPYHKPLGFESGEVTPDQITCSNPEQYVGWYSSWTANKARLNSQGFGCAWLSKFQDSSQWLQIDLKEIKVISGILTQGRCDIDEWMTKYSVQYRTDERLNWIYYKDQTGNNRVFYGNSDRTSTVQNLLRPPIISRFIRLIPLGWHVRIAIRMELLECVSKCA
Experiment: negative stain single particle electron microscopy; purified RS1 adsorbed to glow discharged carbon-coated copper grids, stained with 0.75% uranyl formate; 2D classification (SPIDER) and 3D reconstruction (EMAN2, RELION, D8 symmetry enforced)
Conditions: remark: other sources report otherwise

B1: RS1 (retinoschisin), human, recombinant, secreted from Sf21 insect cells, O15537 24-224 (natural protein)
chain: STEDEGEDPWYQKACKCDCQGGPNALWSAGATSLDCIPECPYHKPLGFESGEVTPDQITCSNPEQYVGWYSSWTANKARLNSQGFGCAWLSKFQDSSQWLQIDLKEIKVISGILTQGRCDIDEWMTKYSVQYRTDERLNWIYYKDQTGNNRVFYGNSDRTSTVQNLLRPPIISRFIRLIPLGWHVRIAIRMELLECVSKCA
stoichiometry N: 8

— PMC4728063
